The source of these data is patent US20200179533A1.

One test concerns the target PiT-2-HA (human) (UniProt Q08357). In words: cell-based or functional assay.
Test [1] addresses PiT-2 receptor (human receptor gene PiT-2, SLC20A2) (human) (UniProt Q08357). Kind of test: cell-based or functional assay.

As to “Amphotropic Envelope gene product included in the Reximmune-C1 and 2 retroviral vector”, the EGFP+ cells (%) (transduction efficiency, PiT-2-HA-HCT-15) with PiT-2-HA (human) is 14.9%. Besides, in test [1], the EGFP+ cells (%) (transduction efficiency, PiT-2-CHO-K1) amounted to 34%; the EGFP+ cells (%) (transduction efficiency, PiT-2-MIA-PaCa-2) came out at 78.6%; the EGFP+ cells (%) (transduction efficiency, PiT-2-RKO) was found to be 43.1%.
